Where two headings read alike, the source gives them in different places.
B1: Mu_19F07_VL (SEQ ID NO: 49)_Q89A (antibody, V domains shown)
VH: EVKLVESEGGLVQPGSSMKLSCTASGFTFSDYYMAWVRQVPEKGLEWVANINYDGSSTYYLDSLKSRFIISRDNAKNILYLQMSSLKSEDTATYYCARGLTWDFDVWGTGTTVTVSS
VL: DIVMTQSHKFMSPSVGDRVSITCKASQDVDTAVAWYQQKPGQSPKLLIYLASTRHTGVPDRFTGSGSGTDFTLTISNVQSEDLADYFCAQYSRFPLTFGAGTKLELKR
B2: Mu_19F07_VL (SEQ ID NO: 49)_F94A (antibody, V domains shown)
VH: EVKLVESEGGLVQPGSSMKLSCTASGFTFSDYYMAWVRQVPEKGLEWVANINYDGSSTYYLDSLKSRFIISRDNAKNILYLQMSSLKSEDTATYYCARGLTWDFDVWGTGTTVTVSS
VL: DIVMTQSHKFMSPSVGDRVSITCKASQDVDTAVAWYQQKPGQSPKLLIYLASTRHTGVPDRFTGSGSGTDFTLTISNVQSEDLADYFCQQYSRAPLTFGAGTKLELKR
B3: Mu_19F07_VL (SEQ ID NO: 49)_Q90A (antibody, V domains shown)
VH: EVKLVESEGGLVQPGSSMKLSCTASGFTFSDYYMAWVRQVPEKGLEWVANINYDGSSTYYLDSLKSRFIISRDNAKNILYLQMSSLKSEDTATYYCARGLTWDFDVWGTGTTVTVSS
VL: DIVMTQSHKFMSPSVGDRVSITCKASQDVDTAVAWYQQKPGQSPKLLIYLASTRHTGVPDRFTGSGSGTDFTLTISNVQSEDLADYFCQAYSRFPLTFGAGTKLELKR
B4: Mu_02D09 (antibody, V domains shown)
VH: EVQLVESGGGLVKPGGSLTLSCAASGFTFSDYGMHWLRQAPEKGLEWVAYISSGSRAVFFADTVKGRFTISRDNAKNTLFLQMTSLRSDDTAMYYCARDRYDGRGFAYWGQGTLVTVSA
VL: DIVLTQSPATLSVTPGDSVSLSCRASQSISNNLHWYQQTSHESPRLLITYASQSISGIPSRFSGSGSGTDFTLSINSVETEDFGMYFCQQSNSWPLTFGAGTKLELK
notes: Mouse hybridoma IgG; also called mouse anti-OSMR 02D09
B5: Mu_14C04 (antibody, V domains shown)
VH: EVQLQESGAELVKPGASVKISCKASGYAFSNYWMNWMKQRPGKGLEWIGQIYPGHVNTNYNGNFKDKATLTADKSSSTAYMQLSSLTSEDSAVYFCARSADNSGFVLFAYWGQGTLVTVS
VL: DIVLTQSPASLAVSLGQRATISCRASKSVSTSGYSYLHWYQQKPGQPPKLLIFLASNLESGVPARFSGSGSGTDFTLNIHPVEEEDAATYYCQHSRELPLTFGAGTKLELK
notes: Mouse hybridoma IgG
B6: Mu_09E09 (antibody, V domains shown)
VH: DVKLVESGEGLVKPGGSLKLSCAASGFTFSSYAMSWVRQTPEKRLEWVAYISSGGDYIYYADTVKGRFTISRDNARNTLYLQMSSLKSEDTAMYYCTRDPITGTFAYWGQGTLVTVSA
VL: DLQMTQTTSSLSASLGDRVTISCRASQDINNYLNWYQQKPDGTVKLLIYYTSTLHSGVPSRFSGSGSGTDYSLTISNLEQEDIATYFCQQGNTLPWTFGGGTKLEIK
notes: Mouse hybridoma IgG
B7: Mu_10F07 (antibody, V domains shown)
VH: DVKLVESGEGLVKPGGSLKLSCAASGFTFSSYAMSWVRQTPEKRLEWVTYISSGGDYFYYADTVKGRFTISRDNARNTLYLQMSSLKSEDTAMYYCTRDPITGTFAYWGQGTLVTVSA
VL: DIQMTQTTSSLSASLGDRVTISCRASQDITNYLNWYQQKPDGTVKLLIYYTSTLHSGVPSRFSGSGSGTDFSLTISNLEQEDIATYFCQQGHMLPWTFGGGTKLEIK
notes: Mouse hybridoma IgG

What was measured:
[1] = biological target: T1, ANTIBODY EXPRESSION CONTROL; test: SPR Biacore, expression control
T1 construct: also called mouse anti-canine antibody (capture reagent of the expression control ELISA)
Outline: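 Surface plasmon resonance with OSMR amine-coupled at 5 μg/mL via NHS/EDC, ethanolamine-quenched, and candidate mAbs flowed over as analyte. ka, kd and KD derived from 1:1 model fits.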

[2] = biological target: T2, canine OSMR on canine cells (canine, UniProt A0A8I3MI11 28-967); test: cell-based or functional assay
T2 sequence: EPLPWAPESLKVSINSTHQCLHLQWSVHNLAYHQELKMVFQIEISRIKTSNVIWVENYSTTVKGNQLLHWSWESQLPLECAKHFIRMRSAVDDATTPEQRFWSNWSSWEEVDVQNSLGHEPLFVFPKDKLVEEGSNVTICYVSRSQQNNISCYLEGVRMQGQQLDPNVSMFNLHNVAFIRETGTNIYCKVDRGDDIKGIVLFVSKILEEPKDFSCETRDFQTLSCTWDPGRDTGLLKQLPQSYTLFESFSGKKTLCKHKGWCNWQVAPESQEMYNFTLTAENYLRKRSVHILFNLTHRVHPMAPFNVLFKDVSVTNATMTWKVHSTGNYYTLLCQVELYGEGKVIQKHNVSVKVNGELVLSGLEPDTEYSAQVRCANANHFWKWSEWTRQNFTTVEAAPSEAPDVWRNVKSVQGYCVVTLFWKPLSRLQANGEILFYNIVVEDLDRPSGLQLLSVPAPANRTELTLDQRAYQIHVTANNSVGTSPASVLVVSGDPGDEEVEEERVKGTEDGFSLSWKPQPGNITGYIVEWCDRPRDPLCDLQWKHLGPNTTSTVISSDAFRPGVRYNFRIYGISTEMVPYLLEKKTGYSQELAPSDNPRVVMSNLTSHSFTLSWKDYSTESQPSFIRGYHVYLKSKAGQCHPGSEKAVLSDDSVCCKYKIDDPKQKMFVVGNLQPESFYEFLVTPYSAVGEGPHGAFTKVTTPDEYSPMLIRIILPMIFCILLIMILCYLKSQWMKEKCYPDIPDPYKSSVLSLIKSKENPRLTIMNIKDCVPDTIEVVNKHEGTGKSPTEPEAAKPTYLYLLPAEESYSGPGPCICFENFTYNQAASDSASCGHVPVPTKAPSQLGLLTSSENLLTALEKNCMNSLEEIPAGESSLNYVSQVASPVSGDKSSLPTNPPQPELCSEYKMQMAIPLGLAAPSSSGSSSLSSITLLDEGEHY

[3] = biological target: T3, feline OSMR on feline Fcwf-4 cells (feline, UniProt A0ABI8A843 28-960); test: cell-based or functional assay
T3 sequence: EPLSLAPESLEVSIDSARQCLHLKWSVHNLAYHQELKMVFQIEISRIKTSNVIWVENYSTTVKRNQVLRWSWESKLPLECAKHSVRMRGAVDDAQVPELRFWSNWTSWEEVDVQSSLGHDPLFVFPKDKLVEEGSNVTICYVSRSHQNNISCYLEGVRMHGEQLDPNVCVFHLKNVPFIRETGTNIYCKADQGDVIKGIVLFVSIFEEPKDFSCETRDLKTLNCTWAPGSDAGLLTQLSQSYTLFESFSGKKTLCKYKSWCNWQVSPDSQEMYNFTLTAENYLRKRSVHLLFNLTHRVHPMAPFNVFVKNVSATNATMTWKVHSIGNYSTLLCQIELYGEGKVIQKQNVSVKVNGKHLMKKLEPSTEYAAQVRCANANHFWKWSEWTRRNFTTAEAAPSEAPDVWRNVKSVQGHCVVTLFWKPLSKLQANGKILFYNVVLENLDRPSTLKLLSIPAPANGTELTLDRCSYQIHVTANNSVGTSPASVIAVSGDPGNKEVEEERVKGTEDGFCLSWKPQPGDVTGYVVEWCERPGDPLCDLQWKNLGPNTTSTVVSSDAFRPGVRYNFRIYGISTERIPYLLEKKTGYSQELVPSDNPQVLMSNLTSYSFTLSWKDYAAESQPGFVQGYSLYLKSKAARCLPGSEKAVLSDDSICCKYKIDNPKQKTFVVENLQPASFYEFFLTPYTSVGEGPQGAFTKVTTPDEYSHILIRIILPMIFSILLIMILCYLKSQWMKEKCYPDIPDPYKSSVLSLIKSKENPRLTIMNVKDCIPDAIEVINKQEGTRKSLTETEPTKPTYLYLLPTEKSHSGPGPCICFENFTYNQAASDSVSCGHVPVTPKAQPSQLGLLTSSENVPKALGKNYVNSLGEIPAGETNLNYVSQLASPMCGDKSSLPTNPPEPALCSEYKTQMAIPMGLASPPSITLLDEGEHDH

[4] = biological target: T4, Human_OSMR (human, UniProt Q99650 28-739); test: SPR Biacore, OSMR on chip
T4 construct: Bought protein; also called hOSMR
T4 sequence: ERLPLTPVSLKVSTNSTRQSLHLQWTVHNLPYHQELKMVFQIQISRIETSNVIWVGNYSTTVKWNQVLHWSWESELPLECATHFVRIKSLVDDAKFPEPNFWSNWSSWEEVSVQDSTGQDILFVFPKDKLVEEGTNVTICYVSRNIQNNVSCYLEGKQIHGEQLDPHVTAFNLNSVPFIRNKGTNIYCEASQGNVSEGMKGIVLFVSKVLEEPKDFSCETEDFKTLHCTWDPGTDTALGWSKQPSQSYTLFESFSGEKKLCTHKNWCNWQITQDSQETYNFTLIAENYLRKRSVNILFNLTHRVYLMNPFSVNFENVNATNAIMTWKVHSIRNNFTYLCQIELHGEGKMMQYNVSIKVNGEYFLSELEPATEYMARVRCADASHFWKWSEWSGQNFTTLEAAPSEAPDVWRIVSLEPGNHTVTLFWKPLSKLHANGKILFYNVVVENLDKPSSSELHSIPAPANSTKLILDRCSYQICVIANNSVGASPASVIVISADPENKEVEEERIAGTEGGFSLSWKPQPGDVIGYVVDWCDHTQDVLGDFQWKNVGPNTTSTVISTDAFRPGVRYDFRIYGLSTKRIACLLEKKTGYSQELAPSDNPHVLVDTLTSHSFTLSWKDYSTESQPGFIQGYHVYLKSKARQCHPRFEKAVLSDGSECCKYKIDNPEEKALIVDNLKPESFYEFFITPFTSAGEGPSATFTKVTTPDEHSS

[5] = biological target: T2, canine OSMR on canine cells; test: cell-based or functional assay; remark: listed apart in the source
[6] = biological target: T3, feline OSMR on feline Fcwf-4 cells; test: cell-based or functional assay; remark: listed apart in the source

Binder	Kd [1] [nM]	koff [1] [s⁻¹]	kon [1] [M⁻¹ s⁻¹]	% inh of canine IL-31 pSTAT3 signaling, canine DH82 cells [2] [% inh]	IC50, inhibition of canine OSM pSTAT3 signaling, canine DH82 cells [2] [µg/ml]	% inh of feline IL-31 pSTAT3 signaling, feline Fcwf-4 cells [3] [% inh]	binding result [4]	% inh of canine IL-31 pSTAT3 signaling, canine DH82 cells [5] [% inh @ 75 µg/ml]	IC50, inhibition of canine OSM pSTAT3 signaling, canine DH82 cells [5] [µg/ml]	% inh of feline IL-31 pSTAT3 signaling, feline Fcwf-4 cells [6] [% inh @ 75 µg/ml]	IC50, inhibition of canine IL-31 pSTAT3 signaling, canine DH82 cells [5] [µg/ml]	IC50, inhibition of canine OSM pSTAT3 signaling, feline Fcwf-4 cells [6] [µg/ml]
B1	0.135	4.3e-05	319000									
B2	0.16	5.35e-05	335000									
B3	0.161	5.29e-05	329000									
B4				0	> 50	67	no binding	0	> 50	67		
B5				72	0.73	0	no binding		8.64	0	5.65	
B6				80		63	no binding	80		63		
B7				93	0.04	91	no binding	93	0.05	91		0.23
